In article PMC10662749:

Details: glycan lost

SARS-CoV-2 spike, BA.1 (Omicron): N343Q
other: neutralisation sensitivity: no change
other: neutralisation sensitivity, other: maximum % neutralisation: no change, 82 ± 6 vs 79 ± 7
